Test results: the supplement of paper PMC10724198
± gives the standard deviation of the averaged measurements.

tested on: Saccharomyces cerevisiae; experiment: protein stability index of tFT-peptide fusion (C-terminal peptide) (PSI (0-1 scale)); higher = more stable (slower turnover); details: genetic background: wild type; temperature: 30 C
Protocol: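 Multiplexed protein stability (MPS) profiling in S. cerevisiae. Random 12-aa peptides (tFT-X12 library) are fused to the C-terminus of a sfGFP-mCherry tandem fluorescent timer, after mCherry and a GGGS linker. Cells are FACS-sorted into 8 mCherry/sfGFP bins and deep-sequenced. The protein stability index (PSI) is the read-weighted bin average, scaled from 0 (unstable) to 1 (stable). Only peptides with >10 reads are reported; cells were grown at 30 °C in SC-His with glucose.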
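Also: PSI is a weighted mean of sequencing reads over stability bins, variants kept only with over 10 reads, mCherry proximal and sfGFP distal, peptide attached via GGGS linker.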

Row | Sequence | protein stability index
1 | SSPLLSISPHFP | 0.666 ± 0.042
2 | GKEGGKAGKISE | 0.667 ± 0.028
3 | RVFDPSRSTVVE | 0.774 ± 0.018
4 | GLRRTGRISGSV | 0.7 ± 0.0076
5 | SPACFKIFCRCF | 0.523 ± 0.046
6 | SHSPAPSFPYFP | 0.7367 ± 0.0026
7 | CLWCCFTDCCDT | 0.762 ± 0.011
8 | GRSNRRPWRSGL | 0.649 ± 0.018
9 | PPAPPHPPPFPP | 0.589 ± 0.052
10 | RSPPPPPGPRFP | 0.698 ± 0.019
11 | LMAGPRLCSPLR | 0.634 ± 0.033
12 | SQAALLIPLFSL | 0.681 ± 0.03
13 | FGVALGLRACAG | 0.668 ± 0.059
14 | PPLLPPPLTPPD | 0.628 ± 0.051
15 | VLSLLGVLFCLF | 0.634 ± 0.028
16 | PPLASFPPPPPL | 0.667 ± 0.064
17 | KKKNKKKQKEEK | 0.693 ± 0.012
18 | GCLCAGSMVGDL | 0.666 ± 0.015
19 | ILFSSDLNSFSW | 0.744 ± 0.03
20 | TQNRGLSSFRAF | 0.691 ± 0.035
21 | LPRSLSGCGAGV | 0.711 ± 0.015
22 | SCWVLPFHYGSG | 0.714 ± 0.026
23 | RETMFTRFRGSD | 0.627 ± 0.063
24 | PPPHPKPPPAGH | 0.62 ± 0.069
25 | TTRPTRGRPSSG | 0.682 ± 0.058

Row | Sequence | protein stability index
26 | SCVNGYSVCMCW | 0.524 ± 0.046
27 | ANVRTCCTSVPV | 0.652 ± 0.037
28 | SRFGSVSCRPSI | 0.713 ± 0.079
29 | GAGRLGGDRVVG | 0.698 ± 0.037
30 | EGEDRVEPGTQT | 0.722 ± 0.045
31 | TCAPTRISRTPG | 0.6883 ± 0.00073
32 | PELCLSSPSSLS | 0.686 ± 0.018
33 | GNSAGSGGGGRF | 0.706 ± 0.061
34 | PHPLLPGRSSPP | 0.677 ± 0.061
35 | SPATDRTSLFES | 0.729 ± 0.022
36 | SWIQLDAWETRS | 0.696 ± 0.041
37 | LRIILPPLAQPE | 0.639 ± 0.019
38 | LEQAGFWWPKGL | 0.764 ± 0.0087
39 | PPPPPSPAPGIP | 0.66 ± 0.055
40 | SPCPPPPAHPPR | 0.728 ± 0.026
41 | RPLPGAFLLFRS | 0.695 ± 0.021
42 | VELSVVHMGHTA | 0.722 ± 0.0073
43 | PPSNAFEETLRT | 0.7 ± 0.015
44 | SSILQFSCFHGN | 0.707 ± 0.036
45 | MWVCGFVGGGGG | 0.654 ± 0.035
46 | PSGSNPPRTIPT | 0.713 ± 0.017
47 | GVDGVLGGWGCG | 0.786 ± 0.1
48 | IGLVVVRPKIMI | 0.558 ± 0.012
49 | NKNKKKIKHKRK | 0.669 ± 0.051
50 | APPPPPSRLFPP | 0.672 ± 0.028

Row | Sequence | protein stability index
51 | SGLPPYTPPLSF | 0.80558 ± 0.00056
52 | RCVSLDVPPTGA | 0.688 ± 0.013
53 | RRRKPAEHTPPW | 0.755 ± 0.1
54 | RLEAVLCRRFLR | 0.6561 ± 0.0026
55 | APRTRPSPTLGT | 0.724 ± 0.029
56 | CGAVDTETWWGG | 0.642 ± 0.024
57 | PLPPPDPPAPSL | 0.716 ± 0.0085
58 | VLKGIVKQTRRG | 0.685 ± 0.058
59 | SLPWVLLPTGPY | 0.751 ± 0.075
60 | LGSLSPRLPSLR | 0.672 ± 0.091
61 | WANGEFSLGCGG | 0.712 ± 0.017
62 | LTWRVDECPPYS | 0.712 ± 0.038
63 | PPPDYPPTPAPS | 0.715 ± 0.054
64 | FFPSSPFLPPPR | 0.657 ± 0.1
65 | PPPSAPLPPLPL | 0.714 ± 0.019
66 | VRINNIGKRVNR | 0.706 ± 0.025
67 | GQTTVLPSIYKR | 0.673 ± 0.047
68 | VCGLTLSVCTFG | 0.567 ± 0.0068
69 | SLDQGRLRRLVG | 0.641 ± 0.061
70 | LPAPLHPPPSQP | 0.638 ± 0.014
71 | PPLGPARNYPSL | 0.673 ± 0.018
72 | QTVFRQRLKEPF | 0.644 ± 0.038
73 | QNKKNKNKKKKE | 0.706 ± 0.027
74 | YNRALPGGQAML | 0.795 ± 0.039
75 | FLQSRGWVCNHL | 0.655 ± 0.038

Row | Sequence | protein stability index
76 | MRIKKQNIRNDT | 0.615 ± 0.063
77 | KKRYYNKKINEK | 0.699 ± 0.046
78 | GLQFYPFLSVVR | 0.617 ± 0.013
79 | SPPPPRPPSQPS | 0.674 ± 0.021
80 | GGRRKKRVTPGE | 0.656 ± 0.0097
81 | VDLLGWVSESRC | 0.743 ± 0.089
82 | PPLPPVPSPPPP | 0.654 ± 0.025
83 | RALPPPLCPPPH | 0.606 ± 0.056
84 | EVDRRRSVITLP | 0.668 ± 0.033
85 | GGGRWWRVGVGF | 0.729 ± 0.021
86 | RPLRRQREVCGA | 0.597 ± 0.019
87 | PRVLPFPSFLFF | 0.657 ± 0.022
88 | PPPLSVPVPPLS | 0.68 ± 0.021
89 | RDCVVSCSCIHI | 0.694 ± 0.057
90 | SYLRGPIVTGFG | 0.712 ± 0.077
91 | AGGWRGAEGCGG | 0.782 ± 0.083
92 | HCSVSGLQLFMD | 0.699 ± 0.019
93 | FTPSSPPLPLLP | 0.655 ± 0.11
94 | VPNTFVGVLICP | 0.607 ± 0.026
95 | LVRGKGGRGIEG | 0.698 ± 0.074
96 | SLSPARKDSSLP | 0.683 ± 0.15
97 | RPLRVLSYVPIH | 0.644 ± 0.03
98 | PPPEVDLRPCHC | 0.688 ± 0.055
99 | PLPPPPPDILTP | 0.743 ± 0.013
100 | HLFVPGAFFFFS | 0.718 ± 0.073

Row | Sequence | protein stability index
101 | PPPPPPASPPSP | 0.71 ± 0.015
102 | RVGVRGVVVSMG | 0.612 ± 0.075
103 | GVGGGGACRPVG | 0.709 ± 0.15
104 | GSCPPHPALPHL | 0.713 ± 0.048
105 | EMRAGNWWGREG | 0.728 ± 0.054
106 | PFSPDVSSVVFL | 0.667 ± 0.032
107 | GERWGGGRAAET | 0.714 ± 0.076
108 | SPSSPPPSPPPA | 0.727 ± 0.016
109 | LISLGTYLINGF | 0.6441 ± 0.0051
110 | SPGRSSTLPPVF | 0.7101 ± 0.00072
111 | ESNRHSHVVGPA | 0.683 ± 0.013
112 | LWVESRFVQTFL | 0.6663 ± 0.0013
113 | VWSVDVSGCVVR | 0.641 ± 0.031
114 | RKKIIRDKLNTS | 0.709 ± 0.051
115 | PHPPPERSTNLC | 0.694 ± 0.036
116 | RGGVAGQPDAGR | 0.666 ± 0.014
117 | LVQVGDKRFNRL | 0.651 ± 0.01
118 | YQDDGRRPGFVI | 0.675 ± 0.013
119 | CAIGTGTKVKPS | 0.684 ± 0.016
120 | NIGVKNVVLVEG | 0.537 ± 0.043
121 | ALFPPPSLRPLP | 0.724 ± 0.054
122 | AKACHGGSTLPG | 0.609 ± 0.045
123 | LVGPPDPAHAVH | 0.718 ± 0.031
124 | PAPAPPPSPLPP | 0.655 ± 0.028
125 | GSVMGVGLEKKI | 0.732 ± 0.052

Row | Sequence | protein stability index
126 | LGLGIWDCFCVL | 0.685 ± 0.018
127 | ARGCRRWRVLRR | 0.77 ± 0.25
128 | PLPQNIPFPLPL | 0.735 ± 0.019
129 | GRLPPYLSRRLR | 0.7039 ± 0.0012
130 | LAYCGSTYVSRH | 0.699 ± 0.022
131 | GWGGVWGRVWWR | 0.563 ± 0.05
132 | SEPPFSFLNVSP | 0.676 ± 0.018
133 | KNVILKKNKNWL | 0.6746 ± 0.0063
134 | PLSGFSSPSFFP | 0.693 ± 0.025
135 | FFCLVPLALPRF | 0.649 ± 0.019
136 | KKEGKTKSIRKK | 0.726 ± 0.013
137 | DLSCVPSVNLGM | 0.682 ± 0.075
138 | RRWGLIGVMSYL | 0.732 ± 0.089
139 | NSKGKKFKCLKK | 0.766 ± 0.0099
140 | WGGGGLRGGWDG | 0.738 ± 0.03
141 | CGSTRGDCVGIW | 0.705 ± 0.05
142 | KNQKTTKKKKKI | 0.543 ± 0.019
143 | VVDSGLFLAASR | 0.643 ± 0.08
144 | SAKGGVLLIGLF | 0.603 ± 0.2
145 | FGGGLGGGVVLV | 0.69158 ± 0.00021
146 | GFLSSLRLLPPF | 0.688 ± 0.029
147 | RHSREPRASMTR | 0.641 ± 0.072
148 | EKRDRKKNPRGS | 0.744 ± 0.1
149 | GAVRGDRLTHTG | 0.734 ± 0.028
150 | PPPPPPPRPSFP | 0.696 ± 0.041

Row | Sequence | protein stability index
151 | CRWGGGGRRGRG | 0.723 ± 0.025
152 | VLLRKLLCPGYV | 0.598 ± 0.016
153 | FCLGSFMFEGGR | 0.723 ± 0.032
154 | PLVLPPSPASPF | 0.694 ± 0.042
155 | IGSFTRTTKKFK | 0.723 ± 0.0073
156 | PPPPPPLTPTFP | 0.6601 ± 0.0036
157 | LPVLGSFRLIWL | 0.626 ± 0.016
158 | VRWTVAWAVGAT | 0.689 ± 0.12
159 | GSRSPPPLRPPP | 0.6755 ± 0.0012
160 | LAVNGEIERVCD | 0.636 ± 0.11
161 | ENKGKKITITNE | 0.625 ± 0.018
162 | SPVLSPHSRSSF | 0.633 ± 0.087
163 | PPHPLPPPSPPF | 0.682 ± 0.034
164 | GCTNSCGRHVKG | 0.6426 ± 0.006
165 | TVGSPTPRSSAP | 0.707 ± 0.0098
166 | PPHPSPPHPSSA | 0.752 ± 0.01
167 | IIKMNERTLTKI | 0.692 ± 0.099
168 | QFDRDCAWRPDV | 0.653 ± 0.039
169 | PPPPPSSFPFPP | 0.656 ± 0.049
170 | VPLPGAAGATLL | 0.773 ± 0.091
171 | TLYHWELEPRNP | 0.664 ± 0.013
172 | QSRAMFELMGIS | 0.652 ± 0.004
173 | KFNFVRMSSLRL | 0.692 ± 0.16
174 | LPPVLPLLPSPP | 0.692 ± 0.044
175 | RVYTSAWAPDWR | 0.62 ± 0.056

Row | Sequence | protein stability index
176 | GLLGVGDFRTEF | 0.638 ± 0.048
177 | ANGTLSGSPAPS | 0.641 ± 0.021
178 | RLLVSDSLLLGC | 0.684 ± 0.014
179 | PPLVPPPLRASP | 0.684 ± 0.037
180 | RVTVWHELTVDC | 0.569 ± 0.0083
181 | KVKGKSISKINH | 0.645 ± 0.055
182 | PTPMLPNYPWSR | 0.7431 ± 0.0015
183 | EPPQPPSLPPLF | 0.739 ± 0.0085
184 | PLPPHVPPSLPP | 0.679 ± 0.0083
185 | PLHPPCLPPSRL | 0.814 ± 0.043
186 | WVRQYFRGLQLR | 0.595 ± 0.074
187 | MNRTDPSRDEKP | 0.804 ± 0.094
188 | QAKKSLTTKTSD | 0.658 ± 0.024
189 | RRRNSTFTNLDT | 0.6783 ± 0.0045
190 | PHLTPRRQHRLR | 0.667 ± 0.049
191 | CSSGGFSLFDEA | 0.7504 ± 0.0024
192 | VAYAGIRHDIPQ | 0.68 ± 0.081
193 | GTCWAGALGVVG | 0.684 ± 0.04
194 | YKPKGSKKFKNK | 0.624 ± 0.029
195 | WGGGGLVVFGWK | 0.698 ± 0.011
196 | GEAFLVRRSRNR | 0.722 ± 0.082
